For data set [1], the target named is SUN domain of human SUN1 (amino-acids 616-812) (human). Description: SEC-MALS; untreated (native) co-purified complex; 8-13 mg/ml loaded on Superdex 200 Increase 10/300 GL in 20 mM Hepes pH 7.5, 150 mM KCl, 2 mM DTT.
Data set [2] has the same target. Description: crystal structure; co-expressed and co-purified SUN1-KASH6 at 12 mg/ml; sitting drops, 20 °C; MES pH 6.0 (1.7 Å), Bis Tris pH 5.5 (2.3 Å), sodium citrate pH 5.5 (2.0 Å).
Data set [3] has the same target. In words: SEC-MALS; co-purified complex treated overnight in 20 mM sodium acetate pH 5.0, 150 mM KCl, 10% glycerol, 2 mM DTT, then analysed in 20 mM Hepes pH 7.5, 150 mM KCl, 2 mM DTT.
For data set [4] the target is unchanged. In words: SEC-MALS; untreated (native) co-purified complex; 8-13 mg/ml loaded on Superdex 200 Increase 10/300 GL in 20 mM Hepes pH 7.5, 150 mM KCl, 2 mM DTT. The source holds these as a separate data set.
The target is the same in data set [5]. In words: crystal structure; co-expressed and co-purified SUN1-KASH6 at 12 mg/ml; sitting drops, 20 °C; MES pH 6.0 (1.7 Å), Bis Tris pH 5.5 (2.3 Å), sodium citrate pH 5.5 (2.0 Å). This is another data set of the same source.
Data set [6] concerns the molecule itself. The data set is described as above.

“And” between values parts separate entries of the source, which are not always exact repeats. Equal entries are not always repeated.

As to “SUN domain of human SUN1 (amino-acids 616-812) (domain or fragment)”, the stoichiometry N in data set [1] was 6; in data set [2], 9; in data set [3], 9 and 6.

B1: KASH domain of human JAW1/LRMP (KASH6, amino-acids 515-555) (peptide, UniProt Q12912 515-555, looked up)
chain: TGQLFQKSVDAAPTQQEDSWTSLEHILWPFTRLRHNGPPPV
notes: JAW1/LRMP (lymphoid restricted membrane protein), human, KASH domain, amino-acids 515-555; KASH6α, KASH6β and KASH6γ are the same peptide in three conformations or sites of the crystal structure; also called KASH6α; KASH6β; not shown: His6, N-terminal, cleaved; MBP, N-terminal, cleaved
In the case of B1, the stoichiometry N (KASH6 per SUN1) in data set [4] is 1; in data set [5], 0.67; in data set [3], 0.67 and 1. The binding result in data set [6] was “binds”.
Turning to EDSWTSLEQILWPFTRLRHNGPPPV [KASH6 core H539Q (human JAW1/LRMP amino-acids 531-555)], the stoichiometry N (KASH6 per SUN1) in data set [3] was 1.
Same read-out and setting: the value for EDSATSLEHILWPFTRLRHNGPPPV [KASH6 core W534A (human JAW1/LRMP amino-acids 531-555)] was 1.
In the case of EDSWTSLEHILWPFTRLRYNGPPPV [KASH6 core H549Y (human JAW1/LRMP amino-acids 531-555)], in data set [3], the percent (by mass) as 6:6 complex is 55 % (by mass); the percent (by mass) as 9:6 complex is 45 % (by mass); the stoichiometry N (KASH6 per SUN1) was 0.67 and 1.
In data set [4], EDSWTSLEHILWPFTRLRHNGPPPV [KASH6 core (human JAW1/LRMP amino-acids 531-555)] came in with a stoichiometry N (KASH6 per SUN1) of 1. Also, in data set [3], the percent (by mass) as 6:6 complex was 15 % (by mass), the percent (by mass) as 9:6 complex is 85 % (by mass) and the stoichiometry N (KASH6 per SUN1) is 0.67.
For EDSWTSLEKILWPFTRLRHNGPPPV [KASH6 core H539K (human JAW1/LRMP amino-acids 531-555)], in data set [4], the percent (by mass) as 6:6 complex was 40 % (by mass); the percent (by mass) as 9:6 complex is 60 % (by mass); the stoichiometry N (KASH6 per SUN1) is 1 and 0.67.

Values taken from article PMC10827754, “The crystal structure of SUN1-KASH6 reveals an asymmetric LINC complex architecture compatible with nuclear membrane insertion” (Communications Biology, 2024).
